The values that follow come from paper PMC2970701 (DNA repair, 2010).

The assay addresses S. cerevisiae ubiquitin (S. cerevisiae, UniProt P0CG63 1-76). In words: NMR titration.

Sequence of S. cerevisiae ubiquitin (P0CG63 1-76): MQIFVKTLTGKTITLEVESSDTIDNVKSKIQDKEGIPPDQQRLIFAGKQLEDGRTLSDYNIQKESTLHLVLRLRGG

B1: UBZ domain of S. cerevisiae polymerase η (domain or fragment)
chain: TTSSKADEKTPKLECCKYQVTFTDQKALQEHADYHLALKLSEGLNGAEESSKNLSFGEKRLLF
On to B1, for which the binding result was “binds”.
